From patent US20240262923A1 (Sanofi, published 2024)
Residue numbers refer to the chain shown, from its start. Read-outs that look alike come from different tables or passages of the source.

Columns and labels:
[1] = molecular target: T1, human His-tagged 4-1BB recombinant protein (human, UniProt Q07011 24-186); assay: ELISA (FIG. 7A), bivalent monoparatopic Fab-like
T1 construct: also called human 4-1BB; h4-1BB; not shown: His tag

[2] = molecular target: T1, human His-tagged 4-1BB recombinant …; assay: binding assay (FIG. 2), bivalent monoparatopic Fab-like
human OX40 = molecular target: T2, human OX40 (human, UniProt P43489 29-216); assay: binding assay (FIG. 2), bivalent Fab-like
T2 construct: also called hOX40
T2 sequence (looked up): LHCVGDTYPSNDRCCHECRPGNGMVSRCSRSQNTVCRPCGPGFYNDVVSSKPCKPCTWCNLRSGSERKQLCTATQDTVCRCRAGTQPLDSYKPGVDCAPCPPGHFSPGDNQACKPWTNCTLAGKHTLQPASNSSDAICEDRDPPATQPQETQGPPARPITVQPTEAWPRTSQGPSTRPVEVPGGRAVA

human CD40 = human CD40 (human, UniProt P25942 21-193); assay: binding assay (FIG. 2), bivalent Fab-like
Sequence of human CD40 (P25942 21-193 limits assumed): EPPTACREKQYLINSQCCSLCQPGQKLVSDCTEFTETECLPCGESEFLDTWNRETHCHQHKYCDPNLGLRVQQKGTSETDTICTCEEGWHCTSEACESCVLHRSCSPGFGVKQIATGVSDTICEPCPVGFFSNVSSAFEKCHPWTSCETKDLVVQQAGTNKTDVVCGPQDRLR

[3] = molecular target: T1, human His-tagged 4-1BB recombinant …; assay: ELISA binding on 4-1BB-his, bivalent monoparatopic Fab-like constructs
[4] = molecular target: T3, cynomolgus monkey PD-1 (SPR analyte) (cynomolgus monkey, UniProt B0LAJ3 25-170); assay: SPR (Biacore 8K), binder captured on anti-Fc chip, target as analyte, 1:1 model
T3 construct: also called cyPD-1
T3 sequence (B0LAJ3 entry or part of it limits assumed): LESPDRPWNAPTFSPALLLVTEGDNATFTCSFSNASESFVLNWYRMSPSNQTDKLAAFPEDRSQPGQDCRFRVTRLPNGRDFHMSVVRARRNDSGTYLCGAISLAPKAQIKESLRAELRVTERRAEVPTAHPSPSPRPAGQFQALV

human PD-1 (SPR analyte) [5] = molecular target: T4, human PD-1 (SPR analyte) (human, UniProt Q15116 25-167, limits assumed); assay: as above
T4 construct: Soluble analyte in SPR; also called hPD-1
T4 sequence (Q15116 25-167 limits assumed): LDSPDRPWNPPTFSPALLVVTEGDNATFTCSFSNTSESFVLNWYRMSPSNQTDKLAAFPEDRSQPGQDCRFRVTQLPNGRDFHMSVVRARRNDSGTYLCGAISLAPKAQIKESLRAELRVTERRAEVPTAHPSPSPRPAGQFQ

[6] = molecular target: T5, human PD-1 expressed on cells (300.19 pre-B cells, PD-1 NFAT-luc2 Jurkat cells, primary T-cells) (human, UniProt Q15116 25-288); assay: flow cytometry on 300.19 pre-B cells
T5 construct: GenBank NP 005009.2 printed; also called hPD-1; Pre-B hPD-1
T5 sequence (Q15116 25-288 limits assumed): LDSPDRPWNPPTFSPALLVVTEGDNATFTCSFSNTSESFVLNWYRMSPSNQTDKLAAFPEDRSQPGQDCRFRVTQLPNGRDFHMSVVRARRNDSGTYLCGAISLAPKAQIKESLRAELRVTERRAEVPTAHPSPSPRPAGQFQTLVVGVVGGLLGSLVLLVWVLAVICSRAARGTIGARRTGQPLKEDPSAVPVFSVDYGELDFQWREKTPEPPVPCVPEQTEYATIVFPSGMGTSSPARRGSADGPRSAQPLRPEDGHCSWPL

[7] = molecular target: T6, cynomolgus monkey PD-1 expressed on 300.19 pre-B cells (cynomolgus monkey, UniProt B0LAJ3 25-288); assay: flow cytometry on 300.19 pre-B cells
T6 construct: also called cyPD-1; Pre-B cyPD-1
T6 sequence (B0LAJ3 entry or part of it limits assumed): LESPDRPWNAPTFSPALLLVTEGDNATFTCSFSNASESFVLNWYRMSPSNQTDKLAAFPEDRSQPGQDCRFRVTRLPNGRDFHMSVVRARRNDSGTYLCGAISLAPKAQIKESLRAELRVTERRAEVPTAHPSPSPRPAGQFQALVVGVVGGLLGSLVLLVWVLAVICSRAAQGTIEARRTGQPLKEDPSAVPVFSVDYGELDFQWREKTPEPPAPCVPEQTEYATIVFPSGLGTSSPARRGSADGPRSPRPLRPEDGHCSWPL

[8] = molecular target: T7, cynomolgus monkey 4-1BB expressed on 300.19 pre-B cells (cynomolgus monkey, UniProt A9YYE7 24-254); assay: flow cytometry on 300.19 pre-B cells
T7 construct: whole, on cells; also called cy4-1BB; Pre-B cy4-1BB

[9] = molecular target: T5, human PD-1 expressed on cells (300.19 …); assay: flow cytometry on PD-1+ Jurkat T-cells
[10] = molecular target: T8, cynomolgus monkey 4-1BB (SPR analyte) (cynomolgus monkey, UniProt A9YYE7 24-186); assay: SPR, KD on cy4-1BB against KD on h4-1BB
T8 construct: also called cy4-1BB
T8 sequence: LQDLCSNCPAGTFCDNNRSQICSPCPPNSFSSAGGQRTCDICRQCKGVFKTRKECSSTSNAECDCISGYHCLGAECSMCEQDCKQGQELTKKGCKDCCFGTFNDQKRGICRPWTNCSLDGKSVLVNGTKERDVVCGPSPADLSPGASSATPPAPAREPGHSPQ

[11] = molecular target: T7, cynomolgus monkey 4-1BB expressed on …; assay: flow cytometry on 300.19 pre-B cells, cy4-1BB
[12] = molecular target: T7, cynomolgus monkey 4-1BB expressed on …; assay: flow cytometry on 300.19 pre-B cells, cy4-1BB against h4-1BB
[13] = molecular target: T3, cynomolgus monkey PD-1 (SPR analyte); assay: SPR, KD on cyPD-1 against KD on hPD-1
[14] = molecular target: T8, cynomolgus monkey 4-1BB (SPR analyte); assay: SPR (Biacore 8K), binder captured on anti-Fc chip, target as analyte, 1:1 model
[15] = molecular target: T5, human PD-1 expressed on cells (300.19 …); assay: cell-based or functional assay
human PD-1 (SPR analyte) [16] = molecular target: T4, human PD-1 (SPR analyte); assay: SPR (Biacore 8K), binder captured on anti-Fc chip, target as analyte, 1:1 model; remark: listed apart in the source
[17] = molecular target: T6, cynomolgus monkey PD-1 expressed on …; assay: flow cytometry on 300.19 pre-B cells, cyPD-1 against hPD-1
[18] = molecular target: T5, human PD-1 expressed on cells (300.19 …); assay: flow cytometry on transfected 300.19 pre-B cells
[19] = molecular target: T7, cynomolgus monkey 4-1BB expressed on …; assay: flow cytometry on transfected 300.19 pre-B cells
[20] = molecular target: T6, cynomolgus monkey PD-1 expressed on …; assay: flow cytometry on transfected 300.19 pre-B cells
[21] = molecular target: T9, human 4-1BB expressed on cells (300.19 pre-B cells, Jurkat NF-κB-luc2P cells, primary T-cells) (human, UniProt Q07011 24-255); assay: flow cytometry on transfected 300.19 pre-B cells
T9 construct: also called h4-1BB; Pre-B h4-1BB
T9 sequence (Q07011 24-255 limits assumed): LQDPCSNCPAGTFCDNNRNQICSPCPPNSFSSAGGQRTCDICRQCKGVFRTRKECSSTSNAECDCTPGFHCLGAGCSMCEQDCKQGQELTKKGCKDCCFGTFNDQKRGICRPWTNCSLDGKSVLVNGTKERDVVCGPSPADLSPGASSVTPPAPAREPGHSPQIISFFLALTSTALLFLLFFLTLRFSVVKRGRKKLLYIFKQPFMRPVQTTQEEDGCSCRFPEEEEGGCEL

[22] = molecular target: T10, human 4-1BB (SPR analyte) (human, UniProt Q07011 24-186); assay: SPR (Biacore 8K), binder captured on anti-Fc chip, target as analyte, 1:1 model
T10 construct: also called h4-1BB

[23] = molecular target: T10, human 4-1BB (SPR analyte); assay: as above; remark: listed apart in the source
[24] = molecular target: T5, human PD-1 expressed on cells (300.19 …); assay: cell-based or functional assay; remark: listed apart in the source
[25] = molecular target: T9, human 4-1BB expressed on cells (300.19 …); assay: cell-based or functional assay
[26] = molecular target: T5, human PD-1 expressed on cells (300.19 …); assay: flow cytometry on Jurkat reporter cells
[27] = molecular target: T9, human 4-1BB expressed on cells (300.19 …); assay: flow cytometry on Jurkat reporter cells
[28] = molecular target: T11, PD-1 in the PD-1/PD-L1 interaction assay (human, UniProt Q15116 25-167, limits assumed); assay: PD-1/PD-L1 interaction assay, Relative EC50, IgG1 LALA
T11 sequence (Q15116 25-167 limits assumed): as the sequence (Q15116 25-167 limits assumed) above

[29] = molecular target: T5, human PD-1 expressed on cells (300.19 …); assay: flow cytometry on anti-CD3-stimulated primary human T-cells
[30] = molecular target: T11, PD-1 in the PD-1/PD-L1 interaction assay; assay: PD-1/PD-L1 interaction assay, Relative EC50, Fab
[31] = molecular target: T11, PD-1 in the PD-1/PD-L1 interaction assay; assay: PD-1/PD-L1 interaction assay, EC50 of Fab against IgG1 LALA

B1: anti-4-1BB clone #5c VHH, bivalent monoparatopic Fab-like construct (other)
chain 1: QVQLQESGGGLVQAGGSLRLSCAASGDTFSSYAMGWFRQAPGERLEWVASINPSGGSQSYHPSVKDRFTISRDNGKNILFLQLDKLNPEDTAVYVCARGTRYKIFASGQGTQVTVSS
chain 2: B1 chain 1
notes: not shown: human CL (lambda) constant domain, tag if any; human IgG1 CH1 domain, HA and 6-His tags
B1: binds [1].

B2: anti-4-1BB VHH Clone #2, bivalent monoparatopic Fab-like construct (other)
chain 1: QVQLQESGGGLVQPGGSLRLSCAASGGLFSINTGGWYRQAPGKQRELVATITHDDRTNYAESVKGRFTLSRDNAKNTVYLQMNSLKPEDTAVYYCRLGSAAIRGYWGQGTQVTVSS
chain 2: B2 chain 1
notes: as for B1
B2: binds [2]; no binding (human OX40); no binding (human CD40).

B3: anti-4-1BB VHH Clone #5, bivalent monoparatopic Fab-like construct (other)
chain 1: QVQLQESGGGLVQPGGSLRLSCAASGFTFSDHTMTWVRQAPGKGLEWVSSISSGGSRIIYADSVKGRFTISRDNAKNTLYLQMNNLRPEDTAVYFCARGTRYKMSTSGPGTQVTVSS
chain 2: B3 chain 1
notes: as for B1
In the case of B3, the “EC50 (read off the curve)” value [3] is reported as about 3 nM, the binding result (human OX40) is reported as “no binding” and the binding result (human CD40) is reported as “no binding”.

B4: Optimized Construct #3 (bispecific antibody)
heavy: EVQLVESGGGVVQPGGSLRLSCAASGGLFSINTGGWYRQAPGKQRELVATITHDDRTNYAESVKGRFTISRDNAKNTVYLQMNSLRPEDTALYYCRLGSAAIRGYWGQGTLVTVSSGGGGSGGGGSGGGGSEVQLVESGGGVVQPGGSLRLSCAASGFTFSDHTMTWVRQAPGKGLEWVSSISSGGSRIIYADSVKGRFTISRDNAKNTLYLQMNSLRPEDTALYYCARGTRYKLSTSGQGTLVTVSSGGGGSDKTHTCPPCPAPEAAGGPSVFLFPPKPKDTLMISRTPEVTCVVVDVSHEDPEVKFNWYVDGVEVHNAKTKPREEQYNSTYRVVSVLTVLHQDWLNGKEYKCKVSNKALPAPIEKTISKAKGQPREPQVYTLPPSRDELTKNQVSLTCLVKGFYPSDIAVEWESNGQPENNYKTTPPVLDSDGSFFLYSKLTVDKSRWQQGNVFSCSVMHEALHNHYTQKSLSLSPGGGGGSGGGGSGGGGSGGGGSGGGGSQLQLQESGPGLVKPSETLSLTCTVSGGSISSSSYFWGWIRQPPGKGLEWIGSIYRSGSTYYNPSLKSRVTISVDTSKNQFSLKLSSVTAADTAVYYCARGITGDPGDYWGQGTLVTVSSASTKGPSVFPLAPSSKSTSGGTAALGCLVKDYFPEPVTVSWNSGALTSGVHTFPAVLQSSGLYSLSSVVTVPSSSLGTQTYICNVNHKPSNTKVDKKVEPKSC
light: EIVLTQSPATLSLSPGERATLSCGASQSVPINFLAWYQQKPGLAPRLLIYEASSRHTGIPDRFSGSGSGTDFTLTISRLEPEDFAVYYCGQYGSSPYTFGQGTKLEIKRTVAAPSVFIFPPSDEQLKSGTASVVCLLNNFYPREAKVQWKVDNALQSGNSQESVTEQDSKDSTYSLSSTLTLSKADYEKHKVYACEVTHQGLSSPVTKSFNRGEC
notes: also called Optimized Construct #3 (unmasked); naked
In the case of B4, the Kd [4] is reported as 14.9 nM, the Kd (human PD-1 (SPR analyte) [5]) is reported as 7.29 nM and the EC50 [6] is reported as 1.4 nM. The EC50 [7] was 1.45 nM, the EC50 [8] was 0.91 nM and the EC50 [9] was 0.5 nM. For the same binder, the “Ratio KD cyno/human” value [10] was 1.9 fold, the “masking efficacy (masked EC50/naked EC50)” value [11] was 1 fold and the “Ratio EC50 cy/h” value [12] was 0.3 fold. For the same binder, the “Ratio KD cyno/human” value [13] was 2 fold, the Kd [14] was 21.1 nM and the “EC50 value (nM), PD-1 reporter assay” value [15] was 1.39 nM. For the same binder, the Kd (human PD-1 (SPR analyte) [16]) was 4.54 nM and the “Ratio EC50 cy/h” value [17] was 1.04 fold.

B5: Construct #3 (anti-4-1BB/anti-PD-1 bispecific binding molecule) (bispecific antibody, IgG1)
heavy: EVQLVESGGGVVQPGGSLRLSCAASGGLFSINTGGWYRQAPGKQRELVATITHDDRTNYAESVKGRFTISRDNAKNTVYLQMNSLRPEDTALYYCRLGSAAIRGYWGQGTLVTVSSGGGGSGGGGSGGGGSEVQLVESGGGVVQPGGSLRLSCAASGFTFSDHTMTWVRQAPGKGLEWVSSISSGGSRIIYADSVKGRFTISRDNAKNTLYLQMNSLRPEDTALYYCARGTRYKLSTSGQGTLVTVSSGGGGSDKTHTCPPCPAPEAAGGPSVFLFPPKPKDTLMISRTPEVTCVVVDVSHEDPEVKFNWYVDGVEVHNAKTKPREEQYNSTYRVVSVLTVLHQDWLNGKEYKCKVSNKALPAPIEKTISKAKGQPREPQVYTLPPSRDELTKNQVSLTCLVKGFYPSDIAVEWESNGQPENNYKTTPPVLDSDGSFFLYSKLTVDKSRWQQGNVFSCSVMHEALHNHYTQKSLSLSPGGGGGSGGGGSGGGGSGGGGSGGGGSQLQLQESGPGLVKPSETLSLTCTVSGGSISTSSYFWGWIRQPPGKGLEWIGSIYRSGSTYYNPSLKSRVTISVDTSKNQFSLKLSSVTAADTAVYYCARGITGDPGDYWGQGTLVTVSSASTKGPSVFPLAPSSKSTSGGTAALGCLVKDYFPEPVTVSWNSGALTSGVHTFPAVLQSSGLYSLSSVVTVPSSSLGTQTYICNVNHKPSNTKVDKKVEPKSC
light: B4 light with P30S, H56A, G90Q
notes: also called Original Construct #3
For B5, the Kd [4] was 18.2 nM, the Kd (human PD-1 (SPR analyte) [5]) was 7.05 nM and the EC50 [18] was 3.69 nM. The Emax [18] was 3750 MFI, the EC50 [19] was 0.312 nM and the EC50 [20] was 7.77 nM. The Emax [20] was 13800 MFI, the EC50 [21] was 0.299 nM and the “Ratio KD cyno/human” value [10] was 2.1 fold. For the same binder, the “Ratio KD cyno/human” value [13] was 2.6 fold, the Kd [14] was 25.1 nM and the Kd [22] was 11.8 nM. For the same binder, the Kd [23] was 7.82 nM, the Kd (human PD-1 (SPR analyte) [16]) was 16 nM and the “IC50 (nM) PD-1 reporter assay” value [24] was 6.7 nM. The “EC50 (nM) 4-1BB reporter assay” value [25] was 0.1 nM, the EC50 [26] was 12.3 nM and the Emax [26] was 321 MFI. It also gave an EC50 [27] of 0.191 nM.

B6: anti-PD-1 antibody clone T5 (IgG1 LALA) (antibody, V domains shown)
VH: QLQLQESGPGLVKPSETLSLTCTVSGGSISTSSYFWGWIRQPPGKGLEWIGSIYRSGSTYYNPSLKSRVTISVDTSKNQFSLKLSSVTAADTAVYYCARGITGDPGDYWGQGTLVTVSS
VL: EIVLTQSPATLSLSPGERATLSCGASQSVSINFLAWYQQKPGLAPRLLIYEASSRATGIPDRFSGSGSGTDFTLTISRLEPEDFAVYYCQQYGSSPYTFGQGTKLEIK
For B6, the EC50 [28] was 0.278 nM, the EC50 [29] was 0.205 nM and the EC50 [18] was 0.284 nM. The Emax [18] was 6240 MFI, the binding result [19] was “no binding” and the EC50 [20] was 0.417 nM. For the same binder, the Emax [20] was 17700 MFI, the binding result [21] was “no binding” and the “IC50 (nM) PD-1 reporter assay” value [24] was 2.8 nM. The EC50 [26] was 0.278 nM and the Emax [26] was 280 MFI.

B7: anti-PD-1 antibody clone T5, Fab format (Fab, V domains shown)
VH: B6 VH
VL: B6 VL
In the case of B7, the EC50 [30] is reported as 48.8 nM and the “Ratio Fab:IgG1” value [31] is reported as 176 fold.
